Experimental data reported in patent US20140213531A1 (POLYPHOR, published 2014).
Bridges are numbered along the chain shown (N, C = ends). [ ]: non-standard residue; d: D form. Pro(4NHCOPhe) = not defined here; Nle = CCCC[C@H](N)C(=O)O

How the values were obtained:
Chymase, from human skin [1] = target: T1, Chymase, from human skin (human, UniProt P23946 22-247); assay: enzyme inhibition, pNA substrate
T1 construct: purified natural enzyme, bought
T1 sequence (looked up): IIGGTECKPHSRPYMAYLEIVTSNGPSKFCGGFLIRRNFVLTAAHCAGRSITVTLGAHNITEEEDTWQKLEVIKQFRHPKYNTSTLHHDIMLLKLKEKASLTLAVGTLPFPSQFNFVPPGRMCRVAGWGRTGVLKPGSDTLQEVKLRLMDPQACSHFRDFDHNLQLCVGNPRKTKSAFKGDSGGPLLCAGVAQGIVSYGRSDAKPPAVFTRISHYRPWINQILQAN

[2] = target: Thrombin, from Human Plasma, high activity (human, UniProt P00734 328-622); assay: enzyme inhibition, pNA substrate
[3] = target: Chymotrypsin, from human pancreas (human, UniProt P17538 19-263); assay: cell-based or functional assay
Chain of Chymotrypsin, from human pancreas (P17538 19-263): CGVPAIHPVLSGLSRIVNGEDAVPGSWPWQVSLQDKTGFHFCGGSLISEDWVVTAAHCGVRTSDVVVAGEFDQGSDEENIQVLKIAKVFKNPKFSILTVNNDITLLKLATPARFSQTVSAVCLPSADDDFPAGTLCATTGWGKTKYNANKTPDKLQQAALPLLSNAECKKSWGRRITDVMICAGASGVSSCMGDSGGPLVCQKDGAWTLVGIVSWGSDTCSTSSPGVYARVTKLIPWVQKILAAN

[4] = target: Tryptase, from human lung (human, UniProt Q15661 31-275, limits assumed); assay: cell-based or functional assay
Target sequence in this assay (Q15661 31-275 limits assumed): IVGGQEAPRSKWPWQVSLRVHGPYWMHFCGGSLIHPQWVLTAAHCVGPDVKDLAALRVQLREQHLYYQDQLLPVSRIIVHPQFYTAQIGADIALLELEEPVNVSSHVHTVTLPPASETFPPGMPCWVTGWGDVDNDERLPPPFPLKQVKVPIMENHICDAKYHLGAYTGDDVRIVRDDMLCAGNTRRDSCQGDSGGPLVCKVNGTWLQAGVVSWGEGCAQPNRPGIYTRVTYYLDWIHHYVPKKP

[5] = target: T2, CathepsinG, from human neutrophils (human, UniProt P08311 21-244); assay: cell-based or functional assay
T2 sequence (looked up): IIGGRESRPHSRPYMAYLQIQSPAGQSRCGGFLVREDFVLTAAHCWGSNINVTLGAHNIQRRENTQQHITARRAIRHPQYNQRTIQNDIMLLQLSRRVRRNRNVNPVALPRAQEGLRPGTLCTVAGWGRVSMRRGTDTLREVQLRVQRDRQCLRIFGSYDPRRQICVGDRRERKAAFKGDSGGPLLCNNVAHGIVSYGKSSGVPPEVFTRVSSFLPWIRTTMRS

[6] = target: Trypsin, Iodination grade, from human pancreas (human, UniProt P07477 24-247); assay: cell-based or functional assay
[7] = target: Urokinase from human urine (human, UniProt P00749 21-431, limits assumed); assay: cell-based or functional assay
[8] = target: Thrombin, from Human Plasma, high activity (human, UniProt P00734 328-622); assay: cell-based or functional assay
[9] = target: Coagulation Factor Xa, from human plasma (human, UniProt P00742 41-488, limits assumed); assay: cell-based or functional assay
Chain of Coagulation Factor Xa, from human plasma (P00742 41-488 limits assumed): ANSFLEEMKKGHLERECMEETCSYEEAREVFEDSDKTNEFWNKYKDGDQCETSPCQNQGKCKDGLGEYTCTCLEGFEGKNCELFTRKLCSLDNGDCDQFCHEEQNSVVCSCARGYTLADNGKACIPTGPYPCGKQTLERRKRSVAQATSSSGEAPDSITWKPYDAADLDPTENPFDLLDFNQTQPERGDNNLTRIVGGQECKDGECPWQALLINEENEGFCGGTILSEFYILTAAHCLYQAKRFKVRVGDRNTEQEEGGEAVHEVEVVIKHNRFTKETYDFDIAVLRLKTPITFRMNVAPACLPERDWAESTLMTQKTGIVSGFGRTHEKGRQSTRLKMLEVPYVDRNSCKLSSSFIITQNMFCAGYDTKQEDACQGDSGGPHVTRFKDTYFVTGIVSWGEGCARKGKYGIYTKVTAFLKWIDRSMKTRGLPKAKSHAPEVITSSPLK

Chymase, from human skin [10] = target: T3, Chymase, from human skin (human, UniProt P23946 22-247); assay: cell-based or functional assay
T3 sequence (looked up): T1 sequence (looked up)

[11] = target: T4, Elastase from human neutrophils (human, UniProt P08246 30-247, limits assumed); assay: cell-based or functional assay
T4 sequence (looked up): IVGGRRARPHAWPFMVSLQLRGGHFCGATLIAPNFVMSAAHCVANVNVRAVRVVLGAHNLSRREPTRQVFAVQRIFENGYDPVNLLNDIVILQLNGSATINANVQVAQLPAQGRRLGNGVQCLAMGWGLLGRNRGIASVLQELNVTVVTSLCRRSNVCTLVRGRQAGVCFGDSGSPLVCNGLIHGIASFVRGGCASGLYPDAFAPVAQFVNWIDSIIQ

[12] = target: T5, Trypsin, Iodination grade, from human pancreas (human, UniProt P07477 24-247); assay: enzyme inhibition, pNA substrate
T5 construct: purified natural enzyme, bought

[13] = target: T6, Coagulation Factor Xa, from uman plasma (human, UniProt P00742 41-179; P00742 235-488, limits assumed); assay: enzyme inhibition, pNA substrate
T6 construct: purified natural enzyme, bought; also called FXa
T6 sequence (P00742 41-179 limits assumed, chain 1 of 2): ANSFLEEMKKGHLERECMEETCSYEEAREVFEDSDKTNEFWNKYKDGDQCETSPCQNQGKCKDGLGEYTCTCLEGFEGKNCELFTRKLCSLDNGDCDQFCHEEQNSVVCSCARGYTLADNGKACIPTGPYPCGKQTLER
T6 sequence (P00742 235-488 limits assumed, chain 2 of 2): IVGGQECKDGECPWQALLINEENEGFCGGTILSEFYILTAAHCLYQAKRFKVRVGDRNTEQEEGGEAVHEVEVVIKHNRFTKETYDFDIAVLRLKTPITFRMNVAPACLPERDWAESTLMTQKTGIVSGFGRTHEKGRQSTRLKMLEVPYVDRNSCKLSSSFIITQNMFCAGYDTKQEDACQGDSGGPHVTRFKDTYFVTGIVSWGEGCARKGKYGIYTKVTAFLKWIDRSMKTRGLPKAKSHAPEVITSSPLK

[14] = target: T7, Tryptase, from human lung (human, UniProt Q15661 31-275, limits assumed); assay: enzyme inhibition, pNA substrate
T7 construct: purified natural enzyme, bought
T7 sequence (Q15661 31-275 limits assumed): as the sequence (Q15661 31-275 limits assumed) above

B1: Example 103 (peptide)
peptide: XCTASIPPQCY
HELM: PEPTIDE1{[O=C([C@H](CCc1ccccc1)N[*:1])[*:2]].C.T.A.S.I.P.P.Q.C.Y.[dP].P}$PEPTIDE1,PEPTIDE1,2:R3-10:R3|PEPTIDE1,PEPTIDE1,1:R1-13:R2$$$V2.0
SMILES: CC[C@H](C)[C@@H]1NC(=O)[C@H](CO)NC(=O)[C@H](C)NC(=O)[C@H]([C@@H](C)O)NC(=O)[C@@H]2CSSC[C@H](NC(=O)[C@H](CCC(N)=O)NC(=O)[C@@H]3CCCN3C(=O)[C@@H]3CCCN3C1=O)C(=O)N[C@@H](Cc1ccc(O)cc1)C(=O)N1CCC[C@@H]1C(=O)N1CCC[C@H]1C(=O)N[C@@H](CCc1ccccc1)C(=O)N2
Chymase, from human skin [1]
  % inhibition at 100 µM: 0%
[2]
  % inhibition at 100 µM: 10.2%

B2: Example 12 (peptide)
peptide: XCTKSDPPICR
HELM: PEPTIDE1{[O=C([C@@H](N[*:1])C1CCCCC1)[*:2]].C.T.K.S.D.P.P.I.C.R.[dP].P}$PEPTIDE1,PEPTIDE1,2:R3-10:R3|PEPTIDE1,PEPTIDE1,1:R1-13:R2$$$V2.0
SMILES: CC[C@H](C)[C@@H]1NC(=O)[C@@H]2CCCN2C(=O)[C@@H]2CCCN2C(=O)[C@H](CC(=O)O)NC(=O)[C@H](CO)NC(=O)[C@H](CCCCN)NC(=O)[C@H]([C@@H](C)O)NC(=O)[C@@H]2CSSC[C@H](NC1=O)C(=O)N[C@@H](CCCNC(=N)N)C(=O)N1CCC[C@@H]1C(=O)N1CCC[C@H]1C(=O)N[C@@H](C1CCCCC1)C(=O)N2
[3]
  % inhibition at 100 µM: 28%
[4]
  % inhibition at 100 µM: 59.3%
[5]
  IC50: 90 nmol
[6]
  % inhibition at 100 µM: 97%
[7]
  % inhibition at 100 µM: 12%
[8]
  % inhibition at 100 µM: 11%
[9]
  % inhibition at 100 µM: 5%
Chymase, from human skin [10]
  % inhibition at 100 µM: 12%
[11]
  IC50: 37000 nmol

B3: Example 121 (peptide)
peptide: XCTASIPPQCY
HELM: PEPTIDE1{[Nle].C.T.A.S.I.P.P.Q.C.Y.[dP].D}$PEPTIDE1,PEPTIDE1,2:R3-10:R3|PEPTIDE1,PEPTIDE1,1:R1-13:R2$$$V2.0
SMILES: CCCC[C@@H]1NC(=O)[C@H](CC(=O)O)NC(=O)[C@H]2CCCN2C(=O)[C@H](Cc2ccc(O)cc2)NC(=O)[C@@H]2CSSC[C@H](NC1=O)C(=O)N[C@@H]([C@@H](C)O)C(=O)N[C@@H](C)C(=O)N[C@@H](CO)C(=O)N[C@@H]([C@@H](C)CC)C(=O)N1CCC[C@H]1C(=O)N1CCC[C@H]1C(=O)N[C@@H](CCC(N)=O)C(=O)N2
[12]
  % inhibition at 100 µM: 12.8%
[2]
  % inhibition at 100 µM: 0%

B4: Example 123 (peptide)
peptide: XCTASIPPQCY
HELM: PEPTIDE1{[Nle].C.T.A.S.I.P.P.Q.C.Y.[dP].Q}$PEPTIDE1,PEPTIDE1,2:R3-10:R3|PEPTIDE1,PEPTIDE1,1:R1-13:R2$$$V2.0
SMILES: CCCC[C@@H]1NC(=O)[C@H](CCC(N)=O)NC(=O)[C@H]2CCCN2C(=O)[C@H](Cc2ccc(O)cc2)NC(=O)[C@@H]2CSSC[C@H](NC1=O)C(=O)N[C@@H]([C@@H](C)O)C(=O)N[C@@H](C)C(=O)N[C@@H](CO)C(=O)N[C@@H]([C@@H](C)CC)C(=O)N1CCC[C@H]1C(=O)N1CCC[C@H]1C(=O)N[C@@H](CCC(N)=O)C(=O)N2
notes: also called Ex. 123
Chymase, from human skin [1]
  % inhibition at 100 µM: 0%
[13]
  % inhibition at 100 µM: 0%

B5: Example 90 (peptide)
peptide: XCTASIPPQCF
HELM: PEPTIDE1{[Nle].C.T.A.S.I.P.P.Q.C.F.[dP].P}$PEPTIDE1,PEPTIDE1,2:R3-10:R3|PEPTIDE1,PEPTIDE1,1:R1-13:R2$$$V2.0
SMILES: CCCC[C@@H]1NC(=O)[C@@H]2CCCN2C(=O)[C@H]2CCCN2C(=O)[C@H](Cc2ccccc2)NC(=O)[C@@H]2CSSC[C@H](NC1=O)C(=O)N[C@@H]([C@@H](C)O)C(=O)N[C@@H](C)C(=O)N[C@@H](CO)C(=O)N[C@@H]([C@@H](C)CC)C(=O)N1CCC[C@H]1C(=O)N1CCC[C@H]1C(=O)N[C@@H](CCC(N)=O)C(=O)N2
notes: also called Ex. 90
Chymase, from human skin [1]
  % inhibition at 100 µM: 0%
[2]
  % inhibition at 100 µM: 0%

B6: Example 131 (peptide)
peptide: XCTASIPPQCQ
HELM: PEPTIDE1{[Nle].C.T.A.S.I.P.P.Q.C.Q.[dP].P}$PEPTIDE1,PEPTIDE1,2:R3-10:R3|PEPTIDE1,PEPTIDE1,1:R1-13:R2$$$V2.0
SMILES: CCCC[C@@H]1NC(=O)[C@@H]2CCCN2C(=O)[C@H]2CCCN2C(=O)[C@H](CCC(N)=O)NC(=O)[C@@H]2CSSC[C@H](NC1=O)C(=O)N[C@@H]([C@@H](C)O)C(=O)N[C@@H](C)C(=O)N[C@@H](CO)C(=O)N[C@@H]([C@@H](C)CC)C(=O)N1CCC[C@H]1C(=O)N1CCC[C@H]1C(=O)N[C@@H](CCC(N)=O)C(=O)N2
[12]
  % inhibition at 100 µM: 0%

## cyclo([Nle]CTASIP[Pro(4NHCOPhe)]QCY[dP]P) (disulfide 2-10; reading uncertain, also called Ex. 88) [Example 88]
Chymase, from human skin [1]
  % inhibition at 100 µM: 0%

B7: Example 96 (peptide)
peptide: XCTASIPPQCX
HELM: PEPTIDE1{[Nle].C.T.A.S.I.P.P.Q.C.[O=C([C@H](Cc1ccccc1Cl)N[*:1])[*:2]].[dP].P}$PEPTIDE1,PEPTIDE1,2:R3-10:R3|PEPTIDE1,PEPTIDE1,1:R1-13:R2$$$V2.0
SMILES: CCCC[C@@H]1NC(=O)[C@@H]2CCCN2C(=O)[C@H]2CCCN2C(=O)[C@H](Cc2ccccc2Cl)NC(=O)[C@@H]2CSSC[C@H](NC1=O)C(=O)N[C@@H]([C@@H](C)O)C(=O)N[C@@H](C)C(=O)N[C@@H](CO)C(=O)N[C@@H]([C@@H](C)CC)C(=O)N1CCC[C@H]1C(=O)N1CCC[C@H]1C(=O)N[C@@H](CCC(N)=O)C(=O)N2
notes: also called Ex. 96
[14]
  % inhibition at 100 µM: 0%
Chymase, from human skin [1]
  % inhibition at 100 µM: 0%
[13]
  % inhibition at 100 µM: 0%

B8: Example 7 (peptide)
peptide: RETKSDPPIRF
HELM: PEPTIDE1{R.E.T.K.S.D.P.P.I.R.F.[dP].P}$PEPTIDE1,PEPTIDE1,1:R1-13:R2$$$V2.0
SMILES: CC[C@H](C)[C@@H]1NC(=O)[C@@H]2CCCN2C(=O)[C@@H]2CCCN2C(=O)[C@H](CC(=O)O)NC(=O)[C@H](CO)NC(=O)[C@H](CCCCN)NC(=O)[C@H]([C@@H](C)O)NC(=O)[C@H](CCC(=O)O)NC(=O)[C@H](CCCNC(=N)N)NC(=O)[C@@H]2CCCN2C(=O)[C@H]2CCCN2C(=O)[C@H](Cc2ccccc2)NC(=O)[C@H](CCCNC(=N)N)NC1=O
[3]
  % inhibition at 100 µM: 12%
[4]
  % inhibition at 100 µM: 1.5%
[5]
  IC50: 91 nmol
[6]
  % inhibition at 100 µM: 41%
[7]
  % inhibition at 100 µM: 1.1%
[8]
  % inhibition at 100 µM: 0%
[9]
  % inhibition at 100 µM: 11.7%
Chymase, from human skin [10]
  % inhibition at 100 µM: 13.4%
[11]
  % inhibition at 100 µM: 1.5%

## cyclo([Nle]CTASIPPQCY[dF]P) (disulfide 2-10) [Example 116]
[12]
  % inhibition at 100 µM: 0%

B9: Example 75 (peptide)
peptide: RCTKSDPPICF
HELM: PEPTIDE1{R.C.T.K.S.D.P.P.I.C.F.[dP].P}$PEPTIDE1,PEPTIDE1,2:R3-10:R3|PEPTIDE1,PEPTIDE1,1:R1-13:R2$$$V2.0
SMILES: CC[C@H](C)[C@@H]1NC(=O)[C@@H]2CCCN2C(=O)[C@@H]2CCCN2C(=O)[C@H](CC(=O)O)NC(=O)[C@H](CO)NC(=O)[C@H](CCCCN)NC(=O)[C@H]([C@@H](C)O)NC(=O)[C@@H]2CSSC[C@H](NC1=O)C(=O)N[C@@H](Cc1ccccc1)C(=O)N1CCC[C@@H]1C(=O)N1CCC[C@H]1C(=O)N[C@@H](CCCNC(=N)N)C(=O)N2
[3]
  % inhibition at 100 µM: 7.8%
[4]
  % inhibition at 100 µM: 0%
[5]
  IC50: 86 nmol
[6]
  % inhibition at 100 µM: 92.6%
[7]
  % inhibition at 100 µM: 5.7%
[8]
  % inhibition at 100 µM: 1.1%
[9]
  % inhibition at 100 µM: 5.7%
Chymase, from human skin [10]
  % inhibition at 100 µM: 0%
[11]
  % inhibition at 100 µM: 69.1%
